Assay results: article PMC6769022, “Identification of an adhesive interface for the non-clustered δ1 protocadherin-1 involved in respiratory diseases” (Communications Biology, 2019)
Where a chain is given by its changes, count along the chain named. Names may count otherwise.

How the values were obtained:
[1] = biological target: the molecule itself; experiment: crystal structure; vapor diffusion at 4 °C; one molecule in the asymmetric unit, antiparallel dimers formed by crystal symmetry
[2] = biological target: the molecule itself; experiment: bead aggregation assay; Fc fusions from concentrated HEK293T medium bound to protein G Dynabeads, washed; binding buffer 50 mM TrisHCl pH 7.5, 100 mM NaCl, 10 mM KCl, 0.2% BSA with 2 mM CaCl2; 60 min without motion, then 1 and 2 min rocking; aggregates imaged
[3] = biological target: the molecule itself; experiment: AUC; sedimentation velocity, 50,000 r.p.m., 20 °C, 20 mM Tris-HCl pH 8.0, 150 mM KCl, 50 mM NaCl, 2 mM CaCl2; dimer to monomers

B1: Hs PCDH1 EC1-4bc (domain or fragment, human)
chain: TRVVYKVPEEQPPNTLIGSLAADYGFPDVGHLYKLEVGAPYLRVDGKTGDIFTTETSIDREGLRECQNQLPGDPCILEFEVSITDLVQNGSPRLLEGQIEVQDINDNTPNFASPVITLAIPENTNIGSLFPIPLASDRDAGPNGVASYELQAGPEAQELFGLQVAEDQEEKQPQLIVMGNLDRERWDSYDLTIKVQDGGSPPRASSALLRVTVLDTNDNAPKFERPSYEAELSENSPIGHSVIQVKANDSDQGANAEIEYTFHQAPEVVRRLLRLDRNTGLITVQGPVDREDLSTLRFSVLAKDRGTNPKSARAQVVVTVKDMNDNAPTIEIRGIGLVTHQDGMANISEDVAEETAVALVQVSDRDEGENAAVTCVVAGDVPFQLRQASETGSDSKKKYFLQTTTPLDYEKVKDYTIEIVAVDSGNPPLSSTNSLKVQVVDVNDNA
notes: Protocadherin-1 (PCDH1), human, repeats EC1 to EC4, without signal peptide; also called PCDH1 EC1-4 (bacterially produced, wild type)
B1: binds [1].

B2: PCDH1 EC1-4Fc (Fc fusion, human)
chain: B1 chain
notes: Protocadherin-1 (PCDH1), human, repeats EC1 to EC4; native signal peptide in the construct; Vector CMV:N1-Fc; PDB 6MGA holds the His-tagged mammalian EC1-4 fragment; source: HEK293T, transfected, secreted into serum-free medium, captured on protein G Dynabeads
B2: binds [2].

B3: Hs PCDH1 EC1-4mc (domain or fragment, human)
chain: B1 chain
modifications: sugars observed at N248 (N-linked) and S430 (O-linked) in the structure
notes: Protocadherin-1 (PCDH1), human, repeats EC1 to EC4; Vector CMV:N1-His; also called PCDH1 EC1-4His
B3: binds [1].

B4: PCDH1 EC1-4 C375S (domain or fragment, human)
chain: B1 chain with C375S
notes: Protocadherin-1 (PCDH1), human, repeats EC1 to EC4, without signal peptide; Parent (wild-type bacterial EC1-4) is in PDB 6BX7; also called bacterially produced PCDH1 EC1-4 C375S
B4 was tested, and the Kd [3] was < 5 µM and the “stoichiometry N” value [3] was 2.

B5: PCDH1 EC1-7Fc (Fc fusion, human, UniProt Q08174 58-852, looked up)
chain: TRVVYKVPEEQPPNTLIGSLAADYGFPDVGHLYKLEVGAPYLRVDGKTGDIFTTETSIDREGLRECQNQLPGDPCILEFEVSITDLVQNGSPRLLEGQIEVQDINDNTPNFASPVITLAIPENTNIGSLFPIPLASDRDAGPNGVASYELQAGPEAQELFGLQVAEDQEEKQPQLIVMGNLDRERWDSYDLTIKVQDGGSPPRASSALLRVTVLDTNDNAPKFERPSYEAELSENSPIGHSVIQVKANDSDQGANAEIEYTFHQAPEVVRRLLRLDRNTGLITVQGPVDREDLSTLRFSVLAKDRGTNPKSARAQVVVTVKDMNDNAPTIEIRGIGLVTHQDGMANISEDVAEETAVALVQVSDRDEGENAAVTCVVAGDVPFQLRQASETGSDSKKKYFLQTTTPLDYEKVKDYTIEIVAVDSGNPPLSSTNSLKVQVVDVNDNAPVFTQSVTEVAFPENNKPGEVIAEITASDADSGSNAELVYSLEPEPAAKGLFTISPETGEIQVKTSLDREQRESYELKVVAADRGSPSLQGTATVLVNVLDCNDNDPKFMLSGYNFSVMENMPALSPVGMVTVIDGDKGENAQVQLSVEQDNGDFVIQNGTGTILSSLSFDREQQSTYTFQLKAVDGGVPPRSAYVGVTINVLDENDNAPYITAPSNTSHKLLTPQTRLGETVSQVAAEDFDSGVNAELIYSIAGGNPYGLFQIGSHSGAITLEKEIERRHHGLHRLVVKVSDRGKPPRYGTALVHLYVNETLANRTLLETLLGHSLDTPLDIDIAGDPEYERSKQRGN
notes: Protocadherin-1 (PCDH1), human, repeats EC1 to EC7 (full-length extracellular domain); native signal peptide in the construct; Vector CMV:N1-Fc; Fc detected with anti-human IgG; also called human Protocadherin-1 full-length extracellular domain, Fc-tagged; wild-type PCDH1 EC1-7Fc; source: HEK293T, transfected, secreted into serum-free medium, captured on protein G Dynabeads
B5: binds [2].

B6: PCDH1 EC1-7Fc C375S C548S (Fc fusion, human, UniProt Q08174 58-852, looked up)
chain: B5 chain with C375S, C548S
notes: Protocadherin-1 (PCDH1), human, repeats EC1 to EC7; native signal peptide in the construct; Vector CMV:N1-Fc; source: HEK293T, transfected, secreted into serum-free medium, captured on protein G Dynabeads
B6: binds [2].

B7: PCDH1 EC1-7Fc V115R (Fc fusion, human, UniProt Q08174 58-852, looked up)
chain: B5 chain with V115R
notes: as for B6
B7: binds [2].

B8: PCDH1 EC1-5 C375S C548S (domain or fragment)
chain: MTRVVYKVPEEQPPNTLIGSLAADYGFPDVGHLYKLEVGAPYLRVDGKTGDIFTTETSIDREGLRECQNQLPGDPCILEFEVSITDLVQNGSPRLLEGQIEVQDINDNTPNFASPVITLAIPENTNIGSLFPIPLASDRDAGPNGVASYELQAGPEAQELFGLQVAEDQEEKQPQLIVMGNLDRERWDSYDLTIKVQDGGSPPRASSALLRVTVLDTNDNAPKFERPSYEAELSENSPIGHSVIQVKANDSDQGANAEIEYTFHQAPEVVRRLLRLDRNTGLITVQGPVDREDLSTLRFSVLAKDRGTNPKSARAQVVVTVKDMNDNAPTIEIRGIGLVTHQDGMANISEDVAEETAVALVQVSDRDEGENAAVTSVVAGDVPFQLRQASETGSDSKKKYFLQTTTPLDYEKVKDYTIEIVAVDSGNPPLSSTNSLKVQVVDVNDNAPVFTQSVTEVAFPENNKPGEVIAEITASDADSGSNAELVYSLEPEPAAKGLFTISPETGEIQVKTSLDREQRESYELKVVAADRGSPSLQGTATVLVNVLDSNDNDLEHHHHHH
With B8 the Kd [3] was < 5 µM and the “stoichiometry N” value [3] was 2.

B9: PCDH1 EC1-5 C375S C548S V115R (domain or fragment)
chain: B8 chain with V116R
With B9 the “stoichiometry N” value [3] was 2.
